Legend:
[1] = molecular target: T1, his-tagged ROR2 extracellular domain (ROR2-ECD, G&P Biosciences, cat. no. FCL0192) (human, UniProt Q01974 34-403); assay: BLI (Octet HTX), antibody on anti-human IgG Fc sensor, ROR2-ECD as analyte
T1 construct: Bought protein; also called human ROR2-ECD; recombinant human ROR2-ECD; not shown: his tag
Method: Experiments were carried out while shaking at 1,000 RPM at 30° C.
Anti-Human IgG Fc Capture (AHC) biosensors (ForteBio, cat. no. 18-5060) were pre-conditioned by exposure to 10 mM glycine (Riedel-de Haen, cat. no. 15527) buffer pH 1.7 for 5 s, followed by neutralization in Sample Diluent (ForteBio, cat. no. 18-1048) for 5 s; both steps were repeated 5 times. Next, AHC sensors were loaded with the antibody (2.5 μg/mL in Sample diluent) for 600 s. After a baseline measurement in Sample Diluent (300 s), the association (1,000 s) and dissociation (1,000 s) of a commercially available his-tagged ROR2 extracellular domain (ROR2-ECD, G&P Biosciences, cat. no. FCL0192) was determined using a concentration range of 6.25-400 nM with two-fold dilution steps in Sample Diluent. The calculated molecular mass of ROR2 ECD based on their amino acid sequences of 42.7 kDa was used for calculations. For each antibody a reference sensor was used, which was incubated with Sample Diluent instead of antigen. AHC sensors were regenerated by exposure to 10 mM glycine buffer pH 1.7 for 5 s, followed by neutralization in Sample Diluent for 5 s; both steps were repeated twice. Subsequently sensors were loaded again with antibody for the next cycle of kinetics measurements.
The Y-axis was aligned to the last 10 s of the baseline, Interstep Correction alignment to dissociation and Savitzky-Golay filtering were applied.

[2] = molecular target: T2, ROR121 shuffle variant (Ig-like domain of ROR1, CRD of ROR2, kringle domain of ROR1) (human (ROR1/ROR2 chimera), UniProt Q01973 30-937); assay: cell imaging (CellInsight) on CHO cells expressing the shuffle construct
T2 construct: Transiently expressed on CHO cells
T2 chain: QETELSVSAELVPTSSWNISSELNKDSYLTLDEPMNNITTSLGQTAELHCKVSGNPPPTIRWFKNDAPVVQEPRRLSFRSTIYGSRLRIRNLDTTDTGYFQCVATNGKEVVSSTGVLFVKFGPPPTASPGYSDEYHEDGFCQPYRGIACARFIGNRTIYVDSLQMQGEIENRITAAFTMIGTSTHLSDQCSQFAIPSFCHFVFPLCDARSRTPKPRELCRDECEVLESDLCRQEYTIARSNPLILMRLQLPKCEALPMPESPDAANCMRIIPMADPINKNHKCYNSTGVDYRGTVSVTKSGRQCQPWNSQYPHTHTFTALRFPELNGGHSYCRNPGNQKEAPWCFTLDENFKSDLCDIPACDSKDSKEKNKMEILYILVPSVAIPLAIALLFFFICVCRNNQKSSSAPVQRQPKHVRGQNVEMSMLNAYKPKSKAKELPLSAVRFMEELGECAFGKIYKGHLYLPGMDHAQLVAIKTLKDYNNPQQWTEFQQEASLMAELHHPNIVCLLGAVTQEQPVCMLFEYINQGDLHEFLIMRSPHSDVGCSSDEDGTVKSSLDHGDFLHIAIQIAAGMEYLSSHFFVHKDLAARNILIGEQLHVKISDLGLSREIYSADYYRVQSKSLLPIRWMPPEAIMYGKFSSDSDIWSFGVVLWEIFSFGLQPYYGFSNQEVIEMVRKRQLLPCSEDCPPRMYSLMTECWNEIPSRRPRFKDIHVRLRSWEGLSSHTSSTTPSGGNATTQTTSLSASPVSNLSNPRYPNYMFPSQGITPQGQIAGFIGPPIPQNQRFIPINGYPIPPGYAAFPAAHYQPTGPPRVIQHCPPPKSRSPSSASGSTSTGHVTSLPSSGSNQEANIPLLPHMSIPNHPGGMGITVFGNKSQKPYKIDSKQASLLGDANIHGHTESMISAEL
Method: (§1) Binding was determined […] using a cell imaging screening system (Celllnsight, Thermo Fisher) as per manufacturer's recommendations. In short, CHO cells expressing shuffle constructs ROR112, ROR121, ROR122, ROR211 or ROR221 (3,000 cells/well in 384-well plates) were incubated with antibody or control samples for 18 h at 37° C./5% CO₂, washed and incubated with an Alexa488-labeled detection antibody for 4 h. Hoechst dye was added and fluorescence images were collected, measuring total spot intensity (RFU).

[3] = molecular target: T3, ROR221 shuffle variant (Ig-like domain and CRD of ROR2, kringle domain of ROR1) (human (ROR1/ROR2 chimera), UniProt Q01973 30-937); assay: as above
T3 chain: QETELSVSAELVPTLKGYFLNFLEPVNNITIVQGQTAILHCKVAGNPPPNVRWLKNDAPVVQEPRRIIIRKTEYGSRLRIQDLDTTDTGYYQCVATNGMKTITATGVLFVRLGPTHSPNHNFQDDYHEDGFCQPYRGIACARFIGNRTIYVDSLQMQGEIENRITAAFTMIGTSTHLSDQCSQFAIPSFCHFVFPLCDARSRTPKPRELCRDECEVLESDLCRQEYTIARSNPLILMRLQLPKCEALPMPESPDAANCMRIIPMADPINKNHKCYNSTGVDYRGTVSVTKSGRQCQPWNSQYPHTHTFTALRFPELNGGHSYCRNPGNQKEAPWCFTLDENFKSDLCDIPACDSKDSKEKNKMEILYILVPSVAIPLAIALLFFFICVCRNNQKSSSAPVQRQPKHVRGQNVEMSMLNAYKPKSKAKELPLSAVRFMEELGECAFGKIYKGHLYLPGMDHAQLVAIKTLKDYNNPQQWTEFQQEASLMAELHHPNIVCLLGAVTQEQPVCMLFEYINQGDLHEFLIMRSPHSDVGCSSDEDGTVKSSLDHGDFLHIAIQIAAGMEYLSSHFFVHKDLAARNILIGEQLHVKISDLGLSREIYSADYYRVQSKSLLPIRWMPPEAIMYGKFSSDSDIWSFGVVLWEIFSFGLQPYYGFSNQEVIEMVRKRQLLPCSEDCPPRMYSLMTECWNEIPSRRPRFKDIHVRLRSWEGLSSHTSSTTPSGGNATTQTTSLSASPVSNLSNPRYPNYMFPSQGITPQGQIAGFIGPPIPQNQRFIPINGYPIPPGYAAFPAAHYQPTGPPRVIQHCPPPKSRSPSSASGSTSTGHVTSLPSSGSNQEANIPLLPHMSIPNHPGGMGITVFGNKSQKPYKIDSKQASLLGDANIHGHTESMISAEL
Method: as §1

Kd [1]: 1.6 nM
koff [1]: 0.00095 s⁻¹
kon [1]: 610000 M⁻¹ s⁻¹
RFU (total spot intensity) [2]: 0 RFU
binding result [2]: no binding (tested: RFU = 0)
RFU (total spot intensity) [3]: 0 RFU
binding result [3]: no binding (tested: RFU = 0)
B1: chIgG1-ROR2-A (antibody, V domains shown)
VH: QSVEESGGRLVTPGTPLTLTCTVSGFSLSSYSMSWVRQAPGKGLEWIGVIYVNSKTWYANWAKGRFTISKTSTTVDLKITSPTTEDTATYFCARGDAGYTTNSWLWGPGTLVTVSS
VL: AFELTQTPASVSEPVGGTVTIKCQASESIDNYCSWYQQKPGQPPKLLIYQAFKLASGVPSRFRGSGSGTQFTLTISDLESDDAATYYCQSYSGISTTAFGGGTEVVVK
notes: Rabbit-human chimeric antibody; also called ROR2 specific antibody A
